# B1: SERP-1: viral serine protease inhibitor produced by malignant rabbit fibroma virus and myxoma virus; sequence of SEQ ID NO: 1 (protein, listed as Myxoma virus)
# chain: MKYLVLVLCLTSCACRDIGLWTFRYVYNESDNVVFSPYGLTSALSVLRIAAGGNTKREIDVPESVVEDSDAFLALRELFVDASVPLRPEFTAEFSSRFNTSVQRVTFNSENVKDVINSYVKDKTGGDVPRVLDASLDRDTKMLLLSSVRMKTSWRHVFDPSFTTDQPFYSGNVTYKVRMMNKIDTLKTETFTLRNVGYSVTELPYKRRQTAMLLVVPDDLGEIVRALDLSLVRFWIRNMRKDVCQVVMPKFSVESVLDLRDALQRLGVRDAFDPSRADFGQASPSNDLYVTKVLQTSKIEADERGTTASSDTAITLIPRNALTAIVANKPFMFLIYHKPTTTVLFMGTITKGEKVIYDTEGRDDVVSSV
# Tests used:
# [1] = test system: intimal fatty cellular proliferation associated with restenosis; settings: rabbits following balloon angioplasty; cited from earlier work
# [2] = test system: Collagen-induced Arthritis (CIA) in Rats; experiment: CIA in rats: blinded radiographic scoring of the ankle joint at study termination; format: in vivo, rats (Louvain); settings: mean ± SD; control group 4.27±1.68; p=0.02
# Method: Twenty four rats (Louvain) weighing 125-150 g were housed at the UCLA vivarium facility and were fed standard laboratory chow and water.
# Type II collagen, (CII) was prepared by pepsin treatment of chick sternal cartilage or was purchased from Genzyme (Boston, Mass.). Rats were anesthetized with ether and were immunized intradermally at several sites on the back, with 0.5 mg native CII solubilized in 0.1M acetic acid and emulsified in FIA (Difco, Detroit, Mich.). The signs and symptoms of rheumatoid arthritis developed over a period of ten days after immunization with collagen. (Oliver and Brahn, (1996) J. Rheumatol. 23, S44-56-60, incorporated herein by reference).
# Cyclosporin at (4 mg/kg/d; sc) was administered by osmotic pump for the duration of the study. […]
# The incidence and severity of chronic arthritis in SERP-1/CsA treated and untreated rats was evaluated via a number of study endpoints. During the experimental phase of the study, the individual hind limbs of each rat was evaluated daily and arthritis severity was quantified by assigning a score (0=normal, 4=maximum/hindpaw) based on increasing levels of swelling and periarticular erythema. The daily, arthritic severity scores for each rat were recorded from disease onset (day 10) until study termination (Table 1). […]
molecule,measurement,setting,value
B1,intimal fatty cellular proliferation associated with restenosis,[1],decrease
same,joint erosions (radiographic score),[2],2.58±1.88

# Reference: patent publication US7419670B2, “Method of treating arthritis with SERP-1 and an immunosuppressant” (Viron Therapeutics, Inc., priority 2000, dated 2008)
